Km, kcat and kcat/Km data for 1 protein are collected here from PMC4541722.

Substrate in data set [1]: Nc1ccn([C@@H]2O[C@H](CO)[C@@H](O)C2(F)F)c(=O)n1
Description: HPLC deamination assay, non-linear regression. The class given is biochemical, Homo sapiens. The note with it: PBS, 37 °C, 10 min, 11 nM enzyme.

Substrate in data set [2]: Nc1ccn([C@H]2C[C@H](O)[C@@H](CO)O2)c(=O)n1
Briefly: HPLC deamination assay, non-linear regression. The data set is classed as biochemical, Homo sapiens. The note with it: PBS, 37 °C, 10 min, 11 nM enzyme.

B1: CDAHuman (Homo sapiens) (protein)
chain: MAQKRPACTLKPECVQQLLVCSQEAKKSAYCPYSHFPVGAALLTQEGRIFKGCNIENACYPLGICAERTAIQKAVSEGYKDFRAIAIASDMQDDFISPCGACRQVMREFGTNWPVYMTKPDGTYIVMTVQELLPSSFGPEDLQKTQ
For the protein B1, in data set [1], the Michaelis-Menten constant (Km) came out at 3080 ± 598 µM, the kcat turned out to be 14 ± 0.91 s⁻¹ and the kcat/Km is 4000 M⁻¹ s⁻¹. Moreover, in data set [2], the Km is 373 ± 138 µM, the kcat turned out to be 7.8 ± 0.64 s⁻¹ and the kcat/Km is 21000 M⁻¹ s⁻¹.
